The results in this text go back to KR20180081029A (dated 2018).

The target in assay [1] is T1, CD86 expressed on the cell surface of Raji B cells (human, UniProt P42081 24-329).
T1 construct: whole, on cells; Raji cells carry both CD80 and CD86; also called B7.2
T1 sequence (looked up): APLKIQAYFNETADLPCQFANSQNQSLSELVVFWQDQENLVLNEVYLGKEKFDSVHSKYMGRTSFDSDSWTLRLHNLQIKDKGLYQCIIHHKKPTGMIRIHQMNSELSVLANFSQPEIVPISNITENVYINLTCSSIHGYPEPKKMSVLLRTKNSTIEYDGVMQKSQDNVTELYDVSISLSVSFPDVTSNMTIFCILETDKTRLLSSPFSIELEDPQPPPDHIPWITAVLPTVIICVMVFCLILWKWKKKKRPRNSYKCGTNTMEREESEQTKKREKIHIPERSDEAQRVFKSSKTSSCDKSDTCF
In words: FACS on Raji B cells (figure legend).

Assay [2] deals with T2, CD86 antigen (R&D systems, Cat. #. 141-B2-100) (human, UniProt P42081 26-245).
T2 construct: Bought reagent
T2 sequence (looked up): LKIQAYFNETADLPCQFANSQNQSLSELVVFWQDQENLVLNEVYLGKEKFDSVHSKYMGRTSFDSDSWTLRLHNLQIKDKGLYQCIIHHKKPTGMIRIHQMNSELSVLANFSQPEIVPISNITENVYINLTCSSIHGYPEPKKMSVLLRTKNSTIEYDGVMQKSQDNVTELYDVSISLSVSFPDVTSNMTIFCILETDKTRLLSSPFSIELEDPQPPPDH
Put plainly: phage bio-panning of a Fab library on the bought antigen, binding checked by Fab ELISA (anti-HA-HRP).

B1: 3A2 (CD86) human antibody, IgG form (antibody, V domains shown)
VH: EVQLLESGGGLVQPGGSLRLSCAASGFTFSYYSMSWVRQAPGKGLEWVSSISYGPGYTYYADSVKGRFTISRDNSKNTLYLQMNSLRAEDTAVYYCARYYYYGYYYGYYGAFDYWGQGTLVTVSS
VL: EIVLTQSPGTLSLSPGERATLSCRASQSVSSSYLAWYQQKPGQAPRLLIYGASSRATGIPDRFSGSGSGTDFTLTISRLEPEDFAVYYCQQGYYSNSTFGQGTKVEIK
notes: Converted to IgG, expressed in 293F cells
In the case of B1, the binding result in assay [1] is “binds”.

B2: 3A2 (CD86), Fab clone selected from the Rz human antibody library (Fab, V domains shown)
VH: B1 VH
VL: B1 VL
notes: Fab (on phage in the panning, soluble from E. coli in the ELISA, detected with anti-HA-HRP, so it carries an HA tag)
As to B2, the binding result in assay [2] was “binds”.
